Experiments:
α-synuclein (human) [1] = target: α-synuclein (human) (UniProt P37840)
α-synuclein (human) [2] = target: α-synuclein (human) (UniProt P37840); remark: listed apart in the source
α-synuclein (human) [3] = target: α-synuclein (human) (UniProt P37840); remark: listed apart in the source
α-synuclein (human) [4] = target: α-synuclein (human) (UniProt P37840); remark: listed apart in the source

## DNAJB6b (from UniProt O75190-2 1-241) (natural protein)
α-synuclein (human) [1]
  apparent solubility of α-syn (free monomer in supernatant by HPLC-MS) with 7.8 to 62.5 nM JB6, pH 5.5 (0.8 μM for α-syn alone; 125 nM JB6 not at equilibrium, 16 μM): 7.7 μM
α-synuclein (human) [2]
  half-time of loss of free α-syn monomer by 1D 1H NMR, 20 μM α-syn with 250 nM JB6 (4.9 h without JB6), pH 5.5, 37 °C: 35 h
α-synuclein (human) [3]
  apparent solubility of α-syn (free monomer by 1D 1H NMR at about 300 h) with 250 nM JB6, pH 5.5: 0.47 μM
α-synuclein (human) [4]
  apparent solubility of α-syn (free monomer in supernatant by HPLC-MS) with 0.12 and 2 μM JB6, pH 4.5: 2.3 μM

— article PMC12100659
